Data taken from patent publication US20190077858A1 (KM BIOLOGICS, published 2019).
Residue numbers refer to the chain shown, from its start.

Key:
[1] = target: T1, K53A variant of human IL-18 (human, UniProt Q14116 37-193, K53A, biotinylated); experiment: ELISA on immobilised biotinylated K53A IL-18, antibody at 1 µg/mL
T1 construct: On the precursor entry the residue at 53 may not be K; the numbering is likely that of mature IL-18
T1 sequence (looked up): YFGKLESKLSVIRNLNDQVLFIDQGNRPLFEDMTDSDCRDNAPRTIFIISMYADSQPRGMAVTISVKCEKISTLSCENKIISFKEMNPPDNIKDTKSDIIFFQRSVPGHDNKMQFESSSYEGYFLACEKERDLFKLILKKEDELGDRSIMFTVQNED
Method: Next, these human IL-18 proteins were biotinylated, then each diluted to 1 μg/mL with PBS (Sigma-Aldrich Corp.), added at 100 μL/well to Streptavidin plates (Nunc), and incubated at room temperature for 2 hours to immobilize them. After the immobilization, the plates were washed with PBST, and human IL-18BPa-hFc (R&D Systems, Inc.) or the IgG molecule-type 4A6D was prepared at 1 μg/mL with 1% BSA-PBS, added at 100 μL/well to the plates, and incubated at 37° C. After 1 hour, the plates were washed with PBST, and a detection antibody anti-hFc/HRP (Cosmo Bio Co., Ltd., The binding site) was added at 100 μL/well to the plates and incubated at 37° C. After 1 hour, the plates were washed with PBST, and TMB (Sigma-Aldrich Corp.) was added at 100 μL/well to the plates to develop color. After 30 minutes, the reaction was terminated with 1 M sulfuric acid, and the color values (O.D. 450 nm/650 nm) were measured using a microplate reader (Molecular Devices, Inc.).

[2] = target: T2, human IL-18 (MBL Medical & Biological Laboratories, Co., Ltd.) (human, UniProt Q14116 37-193, biotinylated (Biotin-PEAC5-maleimide or Biotin-AC5 Sulfo-OSu) in the streptavidin plate ELISAs and the panning; not labelled in the receptor binding and KG-1 assays); experiment: ELISA, biotinylated human IL-18 on streptavidin plate, HRP detection antibody, O.D. 450nm/650nm
T2 construct: Bought protein; also called human interleukin-18; biotinylated human IL-18
T2 sequence (looked up): T1 sequence (looked up) with A53K
Method: The binding activity of the obtained scFv phages, scFv, and IgG prepared by a standard method (conventional method) was evaluated by ELISA. The biotinylated human IL-18 or the biotinylated mouse IL-18 was diluted to 1 μg/mL with PBS (Sigma-Aldrich Corp.), added at 100 μL/well to Streptavidin plates (Nunc), and incubated at room temperature for 2 hours to immobilize the IL-18. After the immobilization, the plates were washed with PBST, and each obtained scFv phage, scFv, or IgG was added at 100 μL/well to the plates and incubated at 37° C. After 1 hour, the plates were washed with PBST, and a detection antibody anti-M13/HRP (GE Healthcare Japan Corp.), anti-His tag/HRP (Bethyl Laboratories, Inc.), anti-V5 tag/HRP (Bethyl Laboratories, Inc.), anti-mouse IgG/HRP (Invitrogen Corp.), or anti-hFc/HRP (Cosmo Bio Co., Ltd., The binding site) was added at 100 μL/well to the plates and incubated at 37° C. After 1 hour, the plates were washed with PBST, and TMB (Sigma-Aldrich Corp.) was added at 100 μL/well to the plates to develop color. After 30 minutes, the reaction was terminated with 2 N sulfuric acid, and the color values (O.D. 450 nm/650 nm) were measured using a microplate reader (Molecular Devices, Inc.).

binding result [1]: binds
EC50 (read off the curve) [2]: ~0.02 mg/L
B1: IgG molecule-type 4A6D (antibody, V domains shown)
VH: EVQLVESGGGLVQPGGSMRLSCTASGFTFDEYAMSWVRQAPGKGLEWVSGISTGGGGTYYADSVEGRFTISRDNSKNTLYLQMNSLRAEDTAVYYCAKPWLSGSRSGDFWGQGTLVTVSS
VL: QSALTQPASVSGSPGQSITISCTGTSSDVGGYNYVSWYQQHPGKAPKLLIYEVSHRPSGVSDRFSGSKSGNTASLTISGLQAEDEADYYCSSFTSSSSLYVFGTGTKLTVL
notes: detected with anti-hFc, so human constant regions; also called human anti-human IL-18 antibody 4A6D
